# Measured values published in publication doi:10.1101/2024.12.26.630402 (bioRxiv, 2024).
# Molecular target: the molecule itself
# Experiment: cryo-EM structure
protein,measurement,value
large glutamate dehydrogenase of 180 kDa subunits from Mycobacterium smegmatis (mL-GDH180) (enzyme) MIRRLSVAFLSTYRGPQADAPGVTSTGPLAVAAHDDLVSDDLVAAHYRLASMRAPGETKAAVYPGDAGSGAALQIVTDQAPMLVDSVTVLLHRHGIAYTAIMNPVFRVRRGLDGELLDVRPAAEAAPGDGADECWILVPITAAADGEALTEATRLVPGILAEARQIGLDSGAMIAALHGLANDLATDLEGHFPNAERKEVAALLRWLADGHFVLLGYQQCVVGDGNAEVDPASRLGVLRLRNDVLPPLTDSDDLLVLAQATMPSYLRYGAYPYIVVVRESPGASRVIEHRFVGLFTVAAMNANALEIPLISRRVEEALAMAHRDPSHPGQLLRDIIQTIPRPELFALSSKQLLEMALAVVDLGSRRRTLLFLRADHLAHFVSCLVYLPRDRYTTAVRLEMQDILVRELGGAGIDYSARVSESPWAVVHFTVRLPEGTAADSVDTSLENESRIQDLLTEATRNWGDRMISAAAAASISPAALEHYAHAFPEDYKQAFAPQDAIADISLIEALQDDSVKLVLADTAEDRVWKLTWYLGGHSASLSELLPMLQSMGVVVLEERPFTLRRTDGLPVWIYQFKISPHPSIPHAPDAEAQRDTAQRFADAVTAIWHGRVEIDRFNELVMRAGLTWQQVVVLRAYAKYLRQAGFPYSQSHIESVLNENPHTTRSLIDLFEALFDPSQETDGRRDAQGAAAAVAADIDALVSLDTDRVLRAFANLIEATLRTNYFVARPDSARARNVLAFKLNPLVIKELPLPRPKFEIFVYSPRVEGVHLRFGFVARGGLRWSDRREDFRTEILGLVKAQAVKNAVIVPVGAKGGFVVKRPPTLTGDAAADREATRAEGVECYRLFISGLLDVTDNVDKATGAVVTPPEVVRRDGEDAYLVVAADKGTATFSDIANEVAKSYGFWLGDAFASGGSIGYDHKAMGITAKGAWESVKRHFREMGVDTQTQDFTVVGIGDMSGDVFGNGMLLSKHIRLVAAFDHRDIFLDPNPDAGRSWDERKRLFDLPRSSWADYDKSLISEGGGVYSRQQKSIPISPQVRTALGLDADVEELTPPALIKAILKAPVDLLWNGGIGTYIKAETEADADVGDRANDQIRVCGNQVRAKVIGEGGNLGVTALGRIEFDLAGGRINTDALDNSAGVDCSDHEVNIKILIDSAVTAGKVTPEERTELLLSMTDEVGELVLADNRDQNDLMGTSRANAASLLSVHARMIKDLVDNRGLNRELEALPSEKEIRRRADAGIGLTSPELATLMAHVKLALKDDVLASDLPDQEVFASRLPYYFPTRLREELHGEIRSHQLRREIITTMLVNDLVDTAGISYAYRITEDVGVGPVDAVRSYVAINAIFGIGDVWRRIRAAGDAGVPTSVTDRMTLDLRRLVDRAGRWLLNYRPQPLAVGAEINRFGAKVAALTPRMSEWLRGDDKAIVSKEAGDFASHGVPEDLAYHIATGLYQYSLLDVIDIADIVDREPDEVADTYFALMDHLGADALLTAVSRLSRDDRWHSLARLAIRDDIYGSLRALCFDVLAVGEPDENGEEKIAEWETTNSSRVTRARRTLTEIYKDGEQDLATLSVAARQIRSMTRTSGTGTTG,stoichiometry N,4
